According to patent US20240228562A1 (Pieris, published 2024):

T1: recombinant rat CTGF protein (R&D Systems) (rat, UniProt Q9R1E9 25-347)
T1 construct: Bought; also called rCTGF
T1 sequence: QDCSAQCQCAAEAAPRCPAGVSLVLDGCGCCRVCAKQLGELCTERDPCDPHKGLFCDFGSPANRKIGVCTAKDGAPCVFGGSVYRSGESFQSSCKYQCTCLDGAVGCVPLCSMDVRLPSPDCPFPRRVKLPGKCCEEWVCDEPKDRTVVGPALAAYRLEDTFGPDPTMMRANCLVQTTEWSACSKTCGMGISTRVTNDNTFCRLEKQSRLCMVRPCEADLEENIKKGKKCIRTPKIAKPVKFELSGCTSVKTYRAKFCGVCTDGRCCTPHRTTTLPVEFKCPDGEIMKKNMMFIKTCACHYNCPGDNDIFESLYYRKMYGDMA

T2: cynomolgus CTGF (cynomolgus, UniProt I7G525 27-349)
T2 construct: also called cyCTGF
T2 sequence: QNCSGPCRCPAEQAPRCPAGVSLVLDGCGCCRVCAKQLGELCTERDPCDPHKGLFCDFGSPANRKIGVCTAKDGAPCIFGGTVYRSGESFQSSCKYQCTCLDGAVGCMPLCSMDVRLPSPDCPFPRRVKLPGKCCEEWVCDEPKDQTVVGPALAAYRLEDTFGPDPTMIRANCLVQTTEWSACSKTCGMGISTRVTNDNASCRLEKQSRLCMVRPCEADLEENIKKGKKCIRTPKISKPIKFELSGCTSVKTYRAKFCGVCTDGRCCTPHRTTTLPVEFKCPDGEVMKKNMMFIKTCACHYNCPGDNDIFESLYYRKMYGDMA


Tests used:
[1] = target: T1, recombinant rat CTGF protein (R&D …); assay: ELISA, coated target
cynomolgus CTGF = target: T2, cynomolgus CTGF; assay: SPR (Biacore)
In short: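 Lipocalin muteins injected at 25 °C over CTGF either Fc-tagged and captured by anti-human IgG-Fc (0.25-2.5 μg/mL in HBS-EP+, 180 s) or amine-coupled directly to a CM5 chip. Association 180 s, dissociation 900-3600 s, flow 30 μL/min.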

| EC50 [1] [nM] | Kd (cynomolgus CTGF) [nM] | koff (cynomolgus CTGF) [s⁻¹] | kon (cynomolgus CTGF) [M⁻¹ s⁻¹] | Binder |
| --- | --- | --- | --- | --- |
| 23 |  |  |  | lipocalin mutein of SEQ ID NO: 25 (designed binder, Parent hNGAL mutein; also called hNGAL mutein) QDSTSDLIPAPPLSKVPLQQNFQDNQFHGKWYVVGMAGNFRLREDKDPSKMGATIYELKEDKSYNVTQVQFDDKKCLYVIETFVPGSQPGEFTLGAIKSFPGFTSQLVRVVSTNYNQHAMVFFKKVYQNREVFWITLYGRTKELTSELKENFIRFSKSLGLPENHIVFPVPIDQCIDGSAWSHPQFEK |
| 41 |  |  |  | lipocalin mutein of SEQ ID NO: 7 (designed binder, Parent hNGAL mutein; also called hNGAL mutein) QDSTSDLIPAPPLSKVPLQQNFQDNQFHGKWYVVGLAGNYGLRTDKRPSKMFATIYELKEDKSYDVTSVRFEQERCHYTIRTFVPGSQPGEFTTGSIKSRPGQTSSLVRVVSTNYNQHAMVFFKSVIQNREYFAITLYGRTKELTSELKENFIRFSKSLGLPENHIVFPVPIDQCIDGSAWSHPQFEK |
| 30 |  |  |  | lipocalin mutein of SEQ ID NO: 9 (designed binder, Parent hNGAL mutein; also called hNGAL mutein) QDSTSDLIPAPPLSKVPLQQNFQDNQFHGKWYVVGLAGNKILRIDKQPAKMFATIYELKEDKSYDVTSVRFEARSCSYTIKTFVPGSQPGEFTAGNIKSAPGQTSTLVRVVSTNYNQHAMVFFKHVSQNRETFVITLYGRTKELTSELKENFIRFSKSLGLPENHIVFPVPIDQCIDGSAWSHPQFEK |
|  | 0.707 | 7.57e-05 | 107000 | lipocalin mutein of SEQ ID NO: 15 (designed binder, also called hNGAL mutein; not shown: C-terminal His-tag) QDSTSDLIPAPPLSKVPLQQNFQDNQFQGKWYVVGLAGNAILREDKQPAKMFATIYELKEDKSYDVTSVRFEAKSCKYTIKTFVPGSQPGEFTAGYIKSAPGQTSTLVRVVSTNYNQHAMVFFKHVTQNREIFVITLYGRTKELTSELKENFIRFSKSLGLPENHIVFPVPIDQCIDG |
| 20 |  |  |  | lipocalin mutein of SEQ ID NO: 29 (designed binder, Parent hNGAL mutein; also called hNGAL mutein) QDSTSDLIPAPPLSKVPLQQNFQDNQFHGKWYVVGWAGNIKLREDKDPFKMSATIYELKEDKSYNVTEVVFEQKKCHYIIKTFVPGSQPGEFTLGDIKSPPGETSSLVRVVSTNYNQHAMVFFKKVFQNREFFWITLYGRTKELTSELKENFIRFSKSLGLPENHIVFPVPIDQCIDGSAWSHPQFEK |
